Laboratory results: publication PMC7367873, “Dissecting the sequence determinants for dephosphorylation by the catalytic subunits of phosphatases PP1 and PP2A” (Nature Communications, 2020)

Key:
[1] = test system: GFP-14-3-3β and its binding proteins; experiment: GFP-14-3-3β co-IP with LC-MS/MS label-free quantification, untreated versus PP1c-treated; parameters: species or system human; settings: label-free quantification, 3 replicates each
[2] = test system: GFP-14-3-3β; experiment: GFP-14-3-3β co-IP with LC-MS/MS, untreated GFP-14-3-3β versus GFP control (14-3-3 interactome); format: binding, human; settings: label-free quantification, 3 replicates each
[3] = GFP-14-3-3β co-IP LC-MS/MS, PP1 vs untreated, student's t-test
[4] = GFP-14-3-3β co-IP LC-MS/MS, untreated vs GFP, student's t-test

Molecule | Difference (log2), PP1 vs untreated [1, 3] [log2] | Difference (log2), untreated vs GFP [2, 4] [log2] | Difference (log2), PP1 vs untreated ([1]; log2 difference, pairwise comparison PP1 vs untreated) | Difference (log2), untreated vs GFP ([2]; log2 difference, pairwise comparison untreated vs GFP)
XPOT (protein, UniProt O43592 1-962, looked up) Exportin-T: MDEQALLGLNPNADSDFRQRALAYFEQLKISPDAWQVCAEALAQRTYSDDHVKFFCFQVLEHQVKYKYSELTTVQQQLIRETLISWLQAQMLNPQPEKTFIRNKAAQVFALLFVTEYLTKWPKFFFDILSVVDLNPRGVDLYLRILMAIDSELVDRDVVHTSEEARRNTLIKDTMREQCIPNLVESWYQILQNYQFTNSEVTCQCLEVVGAYVSWIDLSLIANDRFINMLLGHMSIEVLREEACDCLFEVVNKGMDPVDKMKLVESLCQVLQSAGFFSIDQEEDVDFLARFSKLVNGMGQSLIVSWSKLIKNGDIKNAQEALQAIETKVALMLQLLIHEDDDISSNIIGFCYDYLHILKQLTVLSDQQKANVEAIMLAVMKKLTYDEEYNFENEGEDEAMFVEYRKQLKLLLDRLAQVSPELLLASVRRVFSSTLQNWQTTRFMEVEVAIRLLYMLAEALPVSHGAHFSGDVSKASALQDMMRTLVTSGVSSYQHTSVTLEFFETVVRYEKFFTVEPQHIPCVLMAFLDHRGLRHSSAKVRSRTAYLFSRFVKSLNKQMNPFIEDILNRIQDLLELSPPENGHQSLLSSDDQLFIYETAGVLIVNSEYPAERKQALMRNLLTPLMEKFKILLEKLMLAQDEERQASLADCLNHAVGFASRTSKAFSNKQTVKQCGCSEVYLDCLQTFLPALSCPLQKDILRSGVRTFLHRMIICLEEEVLPFIPSASEHMLKDCEAKDLQEFIPLINQITAKFKIQVSPFLQQMFMPLLHAIFEVLLRPAEENDQSAALEKQMLRRSYFAFLQTVTGSGMSEVIANQGAENVERVLVTVIQGAVEYPDPIAQKTCFIILSKLVELWGGKDGPVGFADFVYKHIVPACFLAPLKQTFDLADAQTVLALSECAVTLKTIHLKRGPECVQYLQQEYLPSLQVAPEIIQEFCQALQQPDAKVFKNYLKVFFQRAKP | -0.251 | 1.37 | – | –
WDR36 (protein, UniProt Q8NI36 1-895, looked up) WD repeat-containing protein …: MERASERRTASALFAGFRALGLFSNDIPHVVRFSALKRRFYVTTCVGKSFHTYDVQKLSLVAVSNSVPQDICCMAADGRLVFAAYGNVFSAFARNKEIVHTFKGHKAEIHFLQPFGDHIISVDTDGILIIWHIYSEEEYLQLTFDKSVFKISAILHPSTYLNKILLGSEQGSLQLWNVKSNKLLYTFPGWKVGVTALQQAPAVDVVAIGLMSGQVIIHNIKFNETLMKFRQDWGPITSISFRTDGHPVMAAGSPCGHIGLWDLEDKKLINQMRNAHSTAIAGLTFLHREPLLVTNGADNALRIWIFDGPTGEGRLLRFRMGHSAPLTNIRYYGQNGQQILSASQDGTLQSFSTVHEKFNKSLGHGLINKKRVKRKGLQNTMSVRLPPITKFAAEEARESDWDGIIACHQGKLSCSTWNYQKSTIGAYFLKPKELKKDDITATAVDITSCGNFAVIGLSSGTVDVYNMQSGIHRGSFGKDQAHKGSVRGVAVDGLNQLTVTTGSEGLLKFWNFKNKILIHSVSLSSSPNIMLLHRDSGILGLALDDFSISVLDIETRKIVREFSGHQGQINDMAFSPDGRWLISAAMDCSIRTWDLPSGCLIDCFLLDSAPLNVSMSPTGDFLATSHVDHLGIYLWSNISLYSVVSLRPLPADYVPSIVMLPGTCQTQDVEVSEETVEPSDELIEYDSPEQLNEQLVTLSLLPESRWKNLLNLDVIKKKNKPKEPPKVPKSAPFFIPTIPGLVPRYAAPEQNNDPQQSKVVNLGVLAQKSDFCLKLEEGLVNNKYDTALNLLKESGPSGIETELRSLSPDCGGSIEVMQSFLKMIGMMLDRKRDFELAQAYLALFLKLHLKMLPSEPVLLEEITNLSSQVEENWTHLQSLFNQSMCILNYLKSALL | -0.2458 | 1.174 | – | –
FAM120A (protein, UniProt Q9NZB2 1-1118, looked up) Constitutive coactivator of …: MGVQGFQDYIEKHCPSAVVPVELQKLARGSLVGGGRQRPPQTPLRLLVDADNCLHRLYGGFYTDWVSGGQWNHMLGYLAALAKACFGGNIELFVFFNGALEKARLHEWVKRQGNERQTAQQIVSHVQNKGTPPPKVWFLPPVCMAHCIRLALIRFHVKVAQSIEDHHQEVIGFCRENGFHGLVAYDSDYALCNIPYYFSAHALKLSRNGKSLTTSQYLMHEVAKQLDLNPNRFPIFAALLGNHILPDEDLASFHWSLLGPEHPLASLKVRAHQLVLPPCDVVIKAVADYVRNIQDTSDLDAIAKDVFQHSQSRTDDKVIRFKRAIGYYSATSKPMSFHPPHYLAARPGPFGMPGMVPPHVPPQMLNIPQTSLQAKPVAPQVPSPGGAPGQGPYPYSLSEPAPLTLDTSGKNLTEQNSYSNIPHEGKHTPLYERSSPINPAQSGSPNHVDSAYFPGSSTSSSSDNDEGSGGATNHISGNKIGWEKTGSHSEPQARGDPGDQTKAEGSSTASSGSQLAEGKGSQMGTVQPIPCLLSMPTRNHMDITTPPLPPVAPEVLRVAEHRHKKGLMYPYIFHVLTKGEIKIAVSIEDEANKDLPPAALLYRPVRQYVYGVLFSLAESRKKTERLAFRKNRLPPEFSPVIIKEWAAYKGKSPQTPELVEALAFREWTCPNLKRLWLGKAVEDKNRRMRAFLACMRSDTPAMLNPANVPTHLMVLCCVLRYMVQWPGARILRRQELDAFLAQALSPKLYEPDQLQELKIENLDPRGIQLSALFMSGVDMALFANDACGQPIPWEHCCPWMYFDGKLFQSKLLKASREKTPLIDLCDGQADQAAKVEKMRQSVLEGLSFSRQSHTLPFPPPPALPFYPASAYPRHFGPVPPSQGRGRGFAGVCGFGGPYGETVATGPYRAFRVAAASGHCGAFSGSDSSRTSKSQGGVQPIPSQGGKLEIAGTVVGHWAGSRRGRGGRGPFPLQVVSVGGPARGRPRGVISTPVIRTFGRGGRYYGRGYKNQAAIQGRPPYAASAEEVAKELKSKSGESKSSAMSSDGSLAENGVMAEEKPAPQMNGSTGDARAPSHSESALNNDSKTCNTNPHLNALSTDSACRREAALEAAVLNKEE | – | – | 1.725 | -0.07006
NAT10 (protein, UniProt Q9H0A0 1-1025, looked up) RNA cytidine acetyltransferase: MHRKKVDNRIRILIENGVAERQRSLFVVVGDRGKDQVVILHHMLSKATVKARPSVLWCYKKELGFSSHRKKRMRQLQKKIKNGTLNIKQDDPFELFIAATNIRYCYYNETHKILGNTFGMCVLQDFEALTPNLLARTVETVEGGGLVVILLRTMNSLKQLYTVTMDVHSRYRTEAHQDVVGRFNERFILSLASCKKCLVIDDQLNILPISSHVATMEALPPQTPDESLGPSDLELRELKESLQDTQPVGVLVDCCKTLDQAKAVLKFIEGISEKTLRSTVALTAARGRGKSAALGLAIAGAVAFGYSNIFVTSPSPDNLHTLFEFVFKGFDALQYQEHLDYEIIQSLNPEFNKAVIRVNVFREHRQTIQYIHPADAVKLGQAELVVIDEAAAIPLPLVKSLLGPYLVFMASTINGYEGTGRSLSLKLIQQLRQQSAQSQVSTTAENKTTTTARLASARTLYEVSLQESIRYAPGDAVEKWLNDLLCLDCLNITRIVSGCPLPEACELYYVNRDTLFCYHKASEVFLQRLMALYVASHYKNSPNDLQMLSDAPAHHLFCLLPPVPPTQNALPEVLAVIQVCLEGEISRQSILNSLSRGKKASGDLIPWTVSEQFQDPDFGGLSGGRVVRIAVHPDYQGMGYGSRALQLLQMYYEGRFPCLEEKVLETPQEIHTVSSEAVSLLEEVITPRKDLPPLLLKLNERPAERLDYLGVSYGLTPRLLKFWKRAGFVPVYLRQTPNDLTGEHSCIMLKTLTDEDEADQGGWLAAFWKDFRRRFLALLSYQFSTFSPSLALNIIQNRNMGKPAQPALSREELEALFLPYDLKRLEMYSRNMVDYHLIMDMIPAISRIYFLNQLGDLALSAAQSALLLGIGLQHKSVDQLEKEIELPSGQLMGLFNRIIRKVVKLFNEVQEKAIEEQMVAAKDVVMEPTMKTLSDDLDEAAKEFQEKHKKEVGKLKSMDLSEYIIRGDDEEWNEVLNKAGPNASIISLKSDKKRKLEAKQEPKQSKKLKNRETKNKKDMKLKRKK | -0.2324 | 2.262 | – | –
CANX (protein, UniProt P27824 21-592, looked up) Calnexin: HDGHDDDVIDIEDDLDDVIEEVEDSKPDTTAPPSSPKVTYKAPVPTGEVYFADSFDRGTLSGWILSKAKKDDTDDEIAKYDGKWEVEEMKESKLPGDKGLVLMSRAKHHAISAKLNKPFLFDTKPLIVQYEVNFQNGIECGGAYVKLLSKTPELNLDQFHDKTPYTIMFGPDKCGEDYKLHFIFRHKNPKTGIYEEKHAKRPDADLKTYFTDKKTHLYTLILNPDNSFEILVDQSVVNSGNLLNDMTPPVNPSREIEDPEDRKPEDWDERPKIPDPEAVKPDDWDEDAPAKIPDEEATKPEGWLDDEPEYVPDPDAEKPEDWDEDMDGEWEAPQIANPRCESAPGCGVWQRPVIDNPNYKGKWKPPMIDNPSYQGIWKPRKIPNPDFFEDLEPFRMTPFSAIGLELWSMTSDIFFDNFIICADRRIVDDWANDGWGLKKAADGAAEPGVVGQMIEAAEERPWLWVVYILTVALPVFLVILFCCSGKKQTSGMEYKKTDAPQPDVKEEEEEKEEEKDKGDEEEEGEEKLEEKQKSDAEEDGGTVSQEEEDRKPKAEEDEILNRSPRNRKPRRE | -0.251 | 0.347 | – | –
ILF3 (protein, UniProt Q12906 1-894, looked up) Interleukin enhancer-binding …: MRPMRIFVNDDRHVMAKHSSVYPTQEELEAVQNMVSHTERALKAVSDWIDEQEKGSSEQAESDNMDVPPEDDSKEGAGEQKTEHMTRTLRGVMRVGLVAKGLLLKGDLDLELVLLCKEKPTTALLDKVADNLAIQLAAVTEDKYEILQSVDDAAIVIKNTKEPPLSLTIHLTSPVVREEMEKVLAGETLSVNDPPDVLDRQKCLAALASLRHAKWFQARANGLKSCVIVIRVLRDLCTRVPTWGPLRGWPLELLCEKSIGTANRPMGAGEALRRVLECLASGIVMPDGSGIYDPCEKEATDAIGHLDRQQREDITQSAQHALRLAAFGQLHKVLGMDPLPSKMPKKPKNENPVDYTVQIPPSTTYAITPMKRPMEEDGEEKSPSKKKKKIQKKEEKAEPPQAMNALMRLNQLKPGLQYKLVSQTGPVHAPIFTMSVEVDGNSFEASGPSKKTAKLHVAVKVLQDMGLPTGAEGRDSSKGEDSAEETEAKPAVVAPAPVVEAVSTPSAAFPSDATAEQGPILTKHGKNPVMELNEKRRGLKYELISETGGSHDKRFVMEVEVDGQKFQGAGSNKKVAKAYAALAALEKLFPDTPLALDANKKKRAPVPVRGGPKFAAKPHNPGFGMGGPMHNEVPPPPNLRGRGRGGSIRGRGRGRGFGGANHGGYMNAGAGYGSYGYGGNSATAGYSQFYSNGGHSGNASGGGGGGGGGSSGYGSYYQGDNYNSPVPPKHAGKKQPHGGQQKPSYGSGYQSHQGQQQSYNQSPYSNYGPPQGKQKGYNHGQGSYSYSNSYNSPGGGGGSDYNYESKFNYSGSGGRSGGNSYGSGGASYNPGSHGGYGGGSGGGSSYQGKQGGYSQSNYNSPGSGQNYSGPPSSYQSSQGGYGRNADHSMNYQYR | -0.2231 | 3.029 | – | –
